According to patent publication US20180258175A1 (ABLEXIS, published 2018):
Like-named read-outs stand apart in the source and are kept apart here.

Assays:
[1] = target: T1, native CD115 on OCI-AML5 cells (UniProt P07333 20-972, limits assumed); experiment: FACS, supernatant on OCI-AML5 cells
T1 construct: whole, on cells; cell line endogenous receptor; also called CD115 expressed on OCI-AML5 cells; CD115 expressing AML5 cells

[2] = target: T2, human CD115 extracellular domain (Sino Biological 10161-H08H) (human, UniProt P07333 20-517); experiment: ELISA, supernatant on huCD115
T2 construct: extracellular domain; bought recombinant protein; also called huCD115; hu-CD115

[3] = target: T2, human CD115 extracellular domain (Sino …); experiment: competition ELISA, competitor TMR 95A;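 note: clonal anti-huCD115 hybridoma supernatants tested for binding while a competitor mouse antibody is present, where failure to bind assigns them to that competitor's epitope bin; low signal means same epitope bin as the mouse competitor antibody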
[4] = target: T2, human CD115 extracellular domain (Sino …); experiment: competition ELISA, competitor TMR 100A;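 note: clonal anti-huCD115 hybridoma supernatants tested for binding with the competitor antibody present, clones failing to bind are assigned to the competitor's epitope bin; low signal means same epitope bin as the mouse competitor antibody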
[5] = target: T2, human CD115 extracellular domain (Sino …); experiment: competition ELISA, competitor TMR 24A;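 note: clonal anti-huCD115 hybridoma supernatant antibodies bound with a competitor mouse antibody present, and failure to bind puts a clone in that competitor's epitope bin; low signal means same epitope bin as the mouse competitor antibody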
[6] = target: T2, human CD115 extracellular domain (Sino …); experiment: competition ELISA, competitor TMR 20A;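 note: epitope binning by ELISA, anti-huCD115 hybridoma supernatant antibodies tested for binding to huCD115 with the competitor antibody present, loss of binding placing them in the competitor's bin; low signal means same epitope bin as the mouse competitor antibody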
[7] = target: T2, human CD115 extracellular domain (Sino …); experiment: competition ELISA, competitor TMR 44B
[8] = target: T2, human CD115 extracellular domain (Sino …); experiment: ELISA, blocking of biotin-CSF-1 binding to coated hu-CD115
[9] = target: T1, native CD115 on OCI-AML5 cells; experiment: cell-based or functional assay
[10] = target: T2, human CD115 extracellular domain (Sino …); experiment: competition ELISA, competitor TMR 35A
[11] = target: T2, human CD115 extracellular domain (Sino …); experiment: ELISA, blocking of biotin-CSF-1 binding to coated hu-CD115; remark: listed apart in the source
[12] = target: T1, native CD115 on OCI-AML5 cells; experiment: cell-based or functional assay; remark: listed apart in the source
[13] = target: T2, human CD115 extracellular domain (Sino …); experiment: SPR ProteOn, mAb amine coupled, Hu CD115 analyte

binding result [1] | binding result [2] | IC50 [8] | IC50, inhibition of CSF-1 induced phosphorylation of CD115 [9] | IC50 [11] | IC50, inhibition of CSF-1 induced P-Tyr on CD115 [12] | Kd [13] | koff [13] | kon [13] | Binder | further results
binds | binds | – | – | – | – | – | – | – | CCL-332A (antibody, V domains shown, AlivaMab chimeric IgG, human lambda LC) VH: EVQLVESGGGLVQPGGSLRLSCAASGFTFSSYSMNWVRQAPGKGLEWVSYISSSSSTIYYADSVKGRFTISRDNAKNSLYLQMNSLRDEDTAVYYCARDYYGSSGYYYPHAFDIWGQGTMVTVSS VL: not shown | –
– | – | 0.811 nM | 1.35 nM | – | – | – | – | – | CCK-416A (antibody, V domains shown, AlivaMab chimeric IgG, human kappa LC) VH: EVQLVESGGDLVQPGGSLRLSCADSRFTFSSYSMNWVRQAPGKGLEWVSYISPSSSTIYYADSVRGRFTISRDNAKNSLYLQMNSLRNEDTAVYYCARDFPHDYGYYPHYFDYWGQGTLVTVSS VL: not shown | signal vs NO COMP=100 [3]: 21%; signal vs NO COMP=100 [4]: 104%; signal vs NO COMP=100 [5]: 37%; signal vs NO COMP=100 [6]: 94%; signal vs NO COMP=100 [7]: 53%; signal vs NO COMP=100 [10]: 107%
– | – | 0.135 nM | 0.045 nM | 0.191 nM | 0.058 nM | 1.2 nM | 0.015 s⁻¹ | 1.3e+07 M⁻¹ s⁻¹ | CCK-423A (antibody, V domains shown, AlivaMab chimeric IgG, human kappa LC; also called AlivaMab CCK423A; AlivaMab Mouse CCK423A) VH: QVQLEQSGAEVKRPGASVKVSCKASGYTFTGYYMHWVRQAPGQGLEWMGWINPNRGDTNYAQKFQGRVTMTRDTSISTAYMELSRLRSDDTAVYYCARDLEGGGPFDYWGQGTLVTVSS VL: DIVMTQTPLSLPVTPGEPASISCRSSQSLLDSDDGNTYLDWYLQKPGQSPQLLIYTLSYRASGVPDRFSGSGSGTDFTLKISRVEAEDVGVYYCMQRIEFPSTFGQGTRLEIK | –
– | – | – | – | 0.253 nM | 0.059 nM | 1.3 nM | 0.014 s⁻¹ | 1.3e+07 M⁻¹ s⁻¹ | CCK423A-IgG2κ (fully human) (antibody, V domains shown, also called Human IgG2κ) VH: QVQLEQSGAEVKRPGASVKVSCKASGYTFTGYYMHWVRQAPGQGLEWMGWINPNRGDTNYAQKFQGRVTMTRDTSISTAYMELSRLRSDDTAVYYCARDLEGGGPFDYWGQGTLVTVSS VL: DIVMTQTPLSLPVTPGEPASISCRSSQSLLDSDDGNTYLDWYLQKPGQSPQLLIYTLSYRASGVPDRFSGSGSGTDFTLKISRVEAEDVGVYYCMQRIEFPSTFGQGTRLEIK | –
– | – | – | – | 0.146 nM | 0.068 nM | 1.2 nM | 0.017 s⁻¹ | 1.2e+07 M⁻¹ s⁻¹ | CCK423A-IgG1κ (fully human) (antibody, V domains shown, also called Human IgG1κ; CCK423A-I IgG1κ) VH: QVQLEQSGAEVKRPGASVKVSCKASGYTFTGYYMHWVRQAPGQGLEWMGWINPNRGDTNYAQKFQGRVTMTRDTSISTAYMELSRLRSDDTAVYYCARDLEGGGPFDYWGQGTLVTVSS VL: DIVMTQTPLSLPVTPGEPASISCRSSQSLLDSDDGNTYLDWYLQKPGQSPQLLIYTLSYRASGVPDRFSGSGSGTDFTLKISRVEAEDVGVYYCMQRIEFPSTFGQGTRLEIK | –
– | – | – | – | 0.133 nM | 0.06 nM | 1.3 nM | 0.015 s⁻¹ | 1.1e+07 M⁻¹ s⁻¹ | CCK423A-IgG4κ (fully human) (antibody, V domains shown, also called Human IgG4κ; CCK423A-IgG4K) VH: QVQLEQSGAEVKRPGASVKVSCKASGYTFTGYYMHWVRQAPGQGLEWMGWINPNRGDTNYAQKFQGRVTMTRDTSISTAYMELSRLRSDDTAVYYCARDLEGGGPFDYWGQGTLVTVSS VL: DIVMTQTPLSLPVTPGEPASISCRSSQSLLDSDDGNTYLDWYLQKPGQSPQLLIYTLSYRASGVPDRFSGSGSGTDFTLKISRVEAEDVGVYYCMQRIEFPSTFGQGTRLEIK | –
binds | binds | – | – | – | – | – | – | – | CCL-213A (antibody, V domains shown, AlivaMab chimeric IgG, human lambda LC) VH: QVQLQESGPGLVKPSETLSLTCTVSGGSISSYYWSWIRQPAGKGLEWIGRIYTSGSTKNPSLKSRVTMSVDTSKNQFSLKLSSVTAADTAVYYCARLTVVGALDYWGQGTLVTVSS VL: not shown | –
binds | binds | – | – | – | – | – | – | – | CCL-325A (antibody, V domains shown, AlivaMab chimeric IgG, human lambda LC) VH: QVQLQESGPGLVKPSETLSLTCTVSGGSISSYYWSWIRQSAGKGLEWIGHIYTSGSTNYNPSLKSRVTMSVDTSKNQFSLKLSSVTAADTAVYYCARERTVVTYFDYWGQGTLVTVSS VL: not shown | –
– | – | 0.355 nM | 0.57 nM | – | – | – | – | – | CCK-415A (antibody, V domains shown, AlivaMab chimeric IgG, human kappa LC) VH: QVQLQESGPGLVKPSETLSLTCTVSGGSISSSYWTWIRQPPGKGLEWIGYIHYSGSTNYNPSLKSRVTISVDTSKNQFSLKLSSVTAADTAVYYCARGFDYWGQGTLVTVSS VL: not shown | signal vs NO COMP=100 [3]: 11%; signal vs NO COMP=100 [4]: 93%; signal vs NO COMP=100 [5]: 31%; signal vs NO COMP=100 [6]: 97%; signal vs NO COMP=100 [7]: 46%; signal vs NO COMP=100 [10]: 96%
binds | binds | – | – | – | – | – | – | – | CCL-321A (antibody, V domains shown, AlivaMab chimeric IgG, human lambda LC) VH: EVQLVESGGGLVQPGGSLRLSCAASGFTFSSYSMNWVRQAPGKGLEWVSYISSSSSTIYYSDSVRGRFTISRDNAKNSLYLQMDSLRDEDTAVYYCARDSTMIVVVKVPDAFDIWGQGTMVTVSS VL: not shown | –
